In patent publication US20120100575A1 (Biogen, published 2012):

Key:
[1] = target: T1, FcγRI (CD64) on IFNγ-activated U937 cells (UniProt P12314 16-374, limits assumed); assay: FcγRI bridging assay, FIG. 13 upper panel
T1 construct: whole, on cells; also called FcRγI
Experimental: (§1) Briefly, the FcγR bridging assay was performed by coating 96 well Maxisorb ELISA plates (Nalge-Nunc Rochester, N.Y., USA) with recombinant soluble human CD154 ligand (i.e., at a concentration of 1 μg/ml overnight at 4° C. in PBS; Karpusas, Hsu et al. 1995). Titrations of glycosylated or aglycosylated forms of anti-CD154 antibody (hu5c8) were then bound to CD154 for 30 minutes at 37° C., the plates were then washed, and the binding of fluorescently labeled U937 (CD64⁺) cells was measured. The U937 cells were grown in RPMI medium with 10% FBS, 10 mM HEPES, L-glutamine, and penicillin/streptomycin, split 1:2, and activated for one day prior to the assay with 1000 units/ml of IFNγ to increase Fc receptor (FcγRI) expression.
(§2) In the assays for both receptors, the Fc receptor-bearing cells were labeled with 2′,7′-bis-(2-carboxyethyl)-5-(and-6)-carboxyfluorescein acetoxymethyl ester (BCECF-AM) (Molecular Probes Eugene, Oreg., USA) for 20 minutes at 37° C. After washing to remove excess label, 1×10⁵ of the labeled cells were incubated in the assay for 30 minutes at 37° C. Unbound FcγR positive cells were removed by washing several times and plates were read on a microplate reader (Cytofluor 2350 Fluorescent Microplate Reader, Millipore Corporation Bedford, Mass., USA) at an excitation wavelength of 485 nm and an emission wavelength of 530 nm.

human C1q (Sigma C0660) [2] = target: T2, human C1q (Sigma C0660) (human, UniProt P02745 23-245; P02746 28-253; P02747 29-245); assay: C1q bridging ELISA: antibody captured on plate-coated soluble human CD154, human C1q detected with sheep anti-C1q
T2 construct: The three subunits come from general knowledge of C1q; also called complement protein C1q
T2 sequence (P02745 23-245 limits assumed, chain 1 of 3): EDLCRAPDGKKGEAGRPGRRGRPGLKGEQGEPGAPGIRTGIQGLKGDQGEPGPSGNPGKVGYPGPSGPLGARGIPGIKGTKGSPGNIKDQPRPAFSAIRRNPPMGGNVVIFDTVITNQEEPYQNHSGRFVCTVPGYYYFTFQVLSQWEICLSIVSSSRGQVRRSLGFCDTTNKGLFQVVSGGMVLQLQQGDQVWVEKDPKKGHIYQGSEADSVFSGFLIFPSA
T2 sequence (P02746 28-253 limits assumed, chain 2 of 3): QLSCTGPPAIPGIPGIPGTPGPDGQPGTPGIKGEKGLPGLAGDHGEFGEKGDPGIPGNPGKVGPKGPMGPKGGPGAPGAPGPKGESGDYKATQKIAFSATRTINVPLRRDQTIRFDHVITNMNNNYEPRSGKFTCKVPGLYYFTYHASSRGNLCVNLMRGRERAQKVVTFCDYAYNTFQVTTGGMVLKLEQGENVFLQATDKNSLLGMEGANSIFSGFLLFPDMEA
T2 sequence (P02747 29-245 limits assumed, chain 3 of 3): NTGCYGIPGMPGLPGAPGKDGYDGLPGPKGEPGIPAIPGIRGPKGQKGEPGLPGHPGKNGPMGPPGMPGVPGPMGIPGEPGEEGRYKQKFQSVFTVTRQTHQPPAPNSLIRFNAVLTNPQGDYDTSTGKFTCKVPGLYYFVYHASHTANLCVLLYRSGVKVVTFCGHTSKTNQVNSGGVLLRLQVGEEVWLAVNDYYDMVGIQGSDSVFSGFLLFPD
Experimental: (§3) The C1q binding assay was performed by coating 96 well Maxisorb ELISA plates (Nalge-Nunc Rochester, N.Y., USA) with 50 μl recombinant soluble human CD154 ligand (Karpusas et al. Structure, 15;3(12):1426 (1995) at 10 μg/ml overnight at 4° C. in PBS. The wells were aspirated and washed three times with wash buffer (PBS, 0.05% Tween 20) and blocked for ≧1 h with 200 μl/well of block/diluent buffer (0.1 M Na₂HPO₄, pH 7, 0.1 M NaCl, 0.05% Tween 20, 0.1% gelatin). The antibody to be tested was diluted in block/diluent buffer starting at 15 μg/ml with 3-fold dilutions. 50 μl were added per well, and the plates incubated for 2 h at room temperature. After aspirating and washing as above, 50 μl/well of 2 μg/ml of Sigma human C1q (C0660) diluted in block/diluent buffer was added and incubated for 1.5 h at room temperature. After aspirating and washing as above, 50 μl/well of sheep anti C1q (Serotec AHP033), diluted 3,560-fold in block/diluent buffer, was added. After incubation for 1 h at room temperature, the wells were aspirated and washed as above. […] The absorbance was read at 450 nm with a Softmax PRO instrument, and Softmax software was used to determine the relative binding affinity (C value) with a 4-parameter fit.

human C1q (Sigma C0660) [3] = target: T2, human C1q (Sigma C0660); assay: C1q bridging ELISA: antibody captured on plate-coated soluble human CD154, human C1q 2 µg/ml detected with sheep anti-C1q
Experimental: as §3

[4] = target: T1, FcγRI (CD64) on IFNγ-activated U937 …; assay: FcγRI bridging assay: antibody captured on plate-coated soluble human CD154, binding of fluorescently labeled IFNγ-activated U937 (CD64+) cells
Experimental: as §1, §2

T1 sequence (P12314 16-374 limits assumed): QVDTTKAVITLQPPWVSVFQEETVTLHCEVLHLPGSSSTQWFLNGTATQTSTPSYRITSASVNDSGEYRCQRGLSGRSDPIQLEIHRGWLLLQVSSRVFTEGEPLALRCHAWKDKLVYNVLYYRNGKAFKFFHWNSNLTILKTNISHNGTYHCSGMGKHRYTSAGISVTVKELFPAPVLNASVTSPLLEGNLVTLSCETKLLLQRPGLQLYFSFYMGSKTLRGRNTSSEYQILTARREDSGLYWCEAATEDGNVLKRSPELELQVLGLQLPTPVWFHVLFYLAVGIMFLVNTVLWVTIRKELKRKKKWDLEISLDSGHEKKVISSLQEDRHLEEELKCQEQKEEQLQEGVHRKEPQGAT

B1: hu5c8 IgG4 variant (S228P/T299A), aglycosylated (antibody)
heavy: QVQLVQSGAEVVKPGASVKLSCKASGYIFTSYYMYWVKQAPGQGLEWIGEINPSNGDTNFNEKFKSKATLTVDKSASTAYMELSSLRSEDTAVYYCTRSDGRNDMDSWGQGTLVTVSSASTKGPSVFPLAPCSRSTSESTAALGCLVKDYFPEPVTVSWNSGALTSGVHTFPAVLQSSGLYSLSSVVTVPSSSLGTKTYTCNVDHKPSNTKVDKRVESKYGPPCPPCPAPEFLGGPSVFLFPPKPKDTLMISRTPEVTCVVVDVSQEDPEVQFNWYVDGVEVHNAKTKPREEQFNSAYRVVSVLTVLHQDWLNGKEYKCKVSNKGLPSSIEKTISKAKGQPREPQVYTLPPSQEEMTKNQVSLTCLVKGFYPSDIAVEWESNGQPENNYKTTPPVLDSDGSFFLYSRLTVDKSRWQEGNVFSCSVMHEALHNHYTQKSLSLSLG
light: DIVLTQSPATLSVSPGERATISCRASQRVSSSTYSYMHWYQQKPGQPPKLLIKYASNLESGVPARFSGSGSGTDFTLTISSVEPEDFATYYCQHSWEIPPTFGGGTKLEIKRTVAAPSVFIFPPSDEQLKSGTASVVCLLNNFYPREAKVQWKVDNALQSGNSQESVTEQDSKDSTYSLSSTLTLSKADYEKHKVYACEVTHQGLSSPVTKSFNRGEC
notes: also called IgG4 T299A; aglycosyl IgG4 T299A antibody variant
[1]
  binding result: binds
Human C1q (Sigma C0660) [2]
  binding result: no binding

B2: hu5c8 IgG1 (glycosylated parent anti-CD154 antibody) (antibody)
heavy: not shown
light: B1 light
notes: Expressed in EBNA 293 cells; also called hu5c8 antibody; glycosylated IgG1
Human C1q (Sigma C0660) [3]
  binding result: binds
[4]
  binding result: binds
